B7: mouse PAI-1 (other)
chain: ALPLRESHTAHQATDFGVKVFQQVVQASKDRNVVFSPYGVSSVLAMLQMTTAGKTRRQIQDAMGFKVNEKGTAHALRQLSKELMGPWNKNEISTADAIFVQRDLELVQGFMPHFFKLFQTMVKQVDFSEVERARFIINDWVERHTKGMINDLLAKGAVDELTRLVLVNALYFSGQWKTPFLEASTHQRLFHKSDGSTVSVPMMAQSNKFNYTEFTTPDGLEYDVVELPYQGDTLSMFIAAPFEKDVHLSALTNILDAELIRQWKGNMTRLPRLLILPKFSLETEVDLRGPLEKLGMPDMFSATLADFTSLSDQEQLSVAQALQKVRIEVNESGTVASSSTAFVISARMAPTEMVIDRSFLFVVRHNPTETILFMGQVMES
notes: bought (US Biological); also called murine PAI-1
B8: rat PAI-1 (other)
chain: SPLPESHTAQQATNFGVKVFQHVVQASKDRNVVFSPYGVSSVLAMLQLTTAGKTRQQIQDAMGFNISERGTAPALRKLSKELMGSWNKNEISTADAIFVQRDLELVQGFMPHFFKLFRTTVKQVDFSEVERARFIINDWVERHTKGMISDLLAKGAVNELTRLVLVNALYFNGQWKTPFLEASTHQRLFHKSDGSTISVPMMAQNNKFNYTEFTTPDGHEYDILELPYHGETLSMFIAAPFEKDVPLSAITNILDAELIRQWKSNMTRLPRLLILPKFSLETEVDLRGPLEKLGMTDIFSSTQADFTSLSDQEQLSVAQALQKVKIEVNESGTVASSSTAILVSARMAPTEMVLDRSFLFVVRHNPTETILFMGQLMEP
notes: bought (US Biological)

The target of assay [1] is B7. In words: cell-based or functional assay.
For assay [2], the target named is T1, human PAI-1, active, wild-type, non-glycosylated (E. coli-derived) (human, UniProt P05121 24-402). In words: cell-based or functional assay.
Assay [3] deals with glycosylated active human PAI-1 produced by CHO cells (human, UniProt P05121 24-402, N-glycosylated (CHO-produced)). Nature of the assay: cell-based or functional assay.
The target in assay [4] is B7. Nature of the assay: cell-based or functional assay. The source holds these as a separate data set.
For assay [5], the target named is B8. In words: cell-based or functional assay.
The target of assay [6] is T2, cynomolgus PAI-1 (cynomolgus, UniProt P05121 24-402 (human entry), limits assumed). Nature of the assay: cell-based or functional assay.
In assay [7] the target is T1, human PAI-1, active, wild-type, …. In words: cell-based or functional assay. This is another data set of the same source.
Assay [8] has as its target B8. In words: cell-based or functional assay. This is another data set of the same source.
The target of assay [9] is T2, cynomolgus PAI-1. Nature of the assay: cell-based or functional assay. This is another data set of the same source.
For assay [10], the target named is T1, human PAI-1, active, wild-type, …. In words: cell-based or functional assay. This is another data set of the same source.
Assay [11] has as its target T3, rabbit PAI-1 (rabbit).
T3 chain: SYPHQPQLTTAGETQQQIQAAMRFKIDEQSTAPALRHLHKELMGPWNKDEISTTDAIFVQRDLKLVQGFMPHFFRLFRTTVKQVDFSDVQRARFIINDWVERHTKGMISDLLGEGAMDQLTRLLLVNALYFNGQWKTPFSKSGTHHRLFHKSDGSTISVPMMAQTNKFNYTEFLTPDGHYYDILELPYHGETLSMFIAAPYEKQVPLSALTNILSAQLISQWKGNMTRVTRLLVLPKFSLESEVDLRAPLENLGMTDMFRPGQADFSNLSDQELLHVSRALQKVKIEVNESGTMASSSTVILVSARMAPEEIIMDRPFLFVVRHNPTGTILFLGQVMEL
In words: competition ELISA (DELFIA), IgG coated, competitor titrated against biotinylated active human PAI-1.

The target of assay [12] is B7. The description is as above.
Assay [13] addresses B8. Described as above.
In assay [14] the target is T4, latent human PAI-1 (human, UniProt P05121 24-402).
T4 construct: also called latent PAI-1
The description is as above.

Assay [15] has as its target T5, PICK167_A01-fgl IgG1 (CAT-1001).
T5 construct: fully germlined variant, made as an IgG1 only; also called PICK67A01-fgl
Nature of the assay: competition ELISA (DELFIA): PICK167_A01-fgl IgG1 (CAT-1001) coated on the plate, binding of biotinylated human PAI-1 detected with streptavidin-Eu3+ in the presence of a titration of the unlabelled test antigen (the varied molecule).

For assay [16], the target named is PICK167_A01 IgG1. Nature of the assay: competition ELISA (DELFIA): PICK167_A01 IgG1 coated on the plate, binding of biotinylated human PAI-1 detected with streptavidin-Eu3+ in the presence of a titration of the unlabelled test antigen (the varied molecule).

The record followed here is US20120114652A1 (AbbVie / Abbott, published 2012).

B1: Antibody 01, IgG1, not germlined (antibody, V domains shown)
VH: QVQLVQSGAEVKKPGSSVKVSCKASGGTFSSYAISWVRQAPGQGLEWMGGIIPIFGTANYAQKFQGRVTITADESTSTAYMELSSLRSEDTAVYYCAREKRQWLEGHFDYWGRGTLVTVSS
VL: DIQMTQSPSTLSASVGDRVTITCRASEGIYRSLAWYQQKPGKAPKLLIYKASSLASGVPSRFSGSGSGTEFTLTISSLQPDDFATYYCQQYSNYPLTFGGGTKVEIK
On to B1, for which the figures for the “IC50 HT-1080 Exo PAI-1” value in assay [1] and in assay [2] were 15.8 nM and 11.2 nM, respectively. The “IC50 chromogenic, hu glyco” value in assay [3] is 1.7 nM. Moreover, the IC50 chromogenic in assay [4] was determined as 30 nM; in [5], 99.3 nM; in [6], 0.7 nM; in assay [7], 1.5 nM. Besides, the IC50 ratio mouse/human in assay [4] was 20. Moreover, the IC50 ratio rat/human in assay [5] worked out at 66.2. Also, the IC50 ratio cyno/human in assay [6] came to 0.4.

B2: Antibody 02, IgG1, not germlined (antibody, V domains shown)
VH: QVQLVQSGAEVKKPGSSVKVSCKASGGTFSSYAISWVRQAPGQGLEWMGGIIPTFGTANYAQKFQGRVTITADESTSTAYMELSSLRSEDTAVYYCAREKRQWLEGHFDYWGRGTLVTVSS
VL: DIQMTQSPSTLSASVGDRVTITCRASEGIYHSLAWYQQKPGKAPKLLIYKASSLASGVPSRFSGSGSGTEFTLTISSLQPDDFATYYCQQYSDYPLTFGGGTKVEIK
Consider B2, for which the results for the “IC50 HT-1080 Exo PAI-1” value in [1] and in assay [2] were 10.9 nM and 8.7 nM, respectively. Besides, in assay [3], the “IC50 chromogenic, hu glyco” value was 1.5 nM. In addition, the results for the IC50 chromogenic in assay [4], in assay [5] and in assay [7] were 167 nM, 510 nM and 1.6 nM, respectively. In addition, the IC50 ratio mouse/human in [4] stood at 104. Further, in [5], the IC50 ratio rat/human was 317.

B3: Antibody 16, scFv (scFv, V domains shown)
VH: QVQLVQSGAEVKKPGSSVKVSCKASGGTFSSYAISWVRQAPGQGLEWMGGIIPTFGTANYAQKFQGRVTITADESTSTAYMELSSLRSEDTAVYYCAREKRQWLEGHFDYWGRGTLVTVSS
VL: DIQMTQSPSTLSASVGDRVTITCRASESIYHSLAWYQQKPGKAPKLLIYKASSLASGVPSRFSGSRSGTEFTLTISSLQPDDFATYYCQQYSNYPLTFGGGTKVEIK
B3: the figures for the “IC50 HT-1080 Exo PAI-1” value in assay [1], in assay [8] and in [2] were 17.6 nM, 52.6 nM and 16.9 nM, respectively. Moreover, the IC50 chromogenic in assay [4] was 4.3 nM; in [5], 5.6 nM. The “IC50 chromogenic (FIG. 2b)” value in assay [9] was 0.8 nM. The “IC50 chromogenic (FIG. 2a)” value in [10] amounted to 3.6 nM.

B4: Antibody 01, IgG4, not germlined (antibody, V domains shown)
VH: QVQLVQSGAEVKKPGSSVKVSCKASGGTFSSYAISWVRQAPGQGLEWMGGIIPIFGTANYAQKFQGRVTITADESTSTAYMELSSLRSEDTAVYYCAREKRQWLEGHFDYWGRGTLVTVSS
VL: DIQMTQSPSTLSASVGDRVTITCRASEGIYRSLAWYQQKPGKAPKLLIYKASSLASGVPSRFSGSGSGTEFTLTISSLQPDDFATYYCQQYSNYPLTFGGGTKVEIK
notes: whole IgG4; also called Ab 01
Turning to B4, the IC50 ratio rabbit/wt in assay [11] was found to be 9.

B5: Antibody 02, IgG4, not germlined (antibody, V domains shown)
VH: QVQLVQSGAEVKKPGSSVKVSCKASGGTFSSYAISWVRQAPGQGLEWMGGIIPTFGTANYAQKFQGRVTITADESTSTAYMELSSLRSEDTAVYYCAREKRQWLEGHFDYWGRGTLVTVSS
VL: DIQMTQSPSTLSASVGDRVTITCRASEGIYHSLAWYQQKPGKAPKLLIYKASSLASGVPSRFSGSGSGTEFTLTISSLQPDDFATYYCQQYSDYPLTFGGGTKVEIK
notes: whole IgG4; also called Ab 02
For the molecule B5, the IC50 ratio rabbit/wt in [11] amounted to 4.8.

B6: Antibody 27, IgG1, not germlined (antibody, V domains shown)
VH: QVQLQQSGAEVKKPGSSVKVSCKASGGAFSSYAISWVRQAPGQGLEWMGGIIPTFGTANYAQKFQGRVTITADESTSTAYMELSGLRSEDTAVYYCAREKRQWLEGHFDYWGRGTPVTVSS
VL: DIQMTQSPSFLSASIGDRVTITCRASEGIYHNLAWYQQKPGKAPKLLIYRASSLASGAPSRFSGSGSGTDFTLTISSLQPDDFATYYCQQYSNYPLTFGGGTKLEIK
notes: whole IgG1; also called Ab 27
B6: the “IC50 HT-1080 Exo PAI-1” value in [1] worked out at 7.8 nM; in assay [8] it was 16.1 nM; in [2], 10.9 nM. In addition, in assay [3], the “IC50 chromogenic, hu glyco” value came to 2.6 nM. Moreover, the IC50 chromogenic was found to be 16.1 nM in [4], 26.5 nM in [5] and 4.9 nM in [7]. Also, the IC50 ratio mouse/human in [4] stood at 3.3. Further, the IC50 ratio rat/human in assay [5] was determined as 5.4. Further, the IC50 ratio mouse/wt in [12] stood at 6.1. Also, the IC50 ratio rat/wt in [13] was 1.2. Besides, in [11], the IC50 ratio rabbit/wt turned out to be 85. Also, the IC50 ratio latent/wt in assay [14] was 6.8.

On to B7, for which the “IC50 (read off the curve)” value in [15] is roughly 2 nM; in assay [16] it was roughly 4 nM.

For B8, the “IC50 (read off the curve)” value in [15] is roughly 1 nM; in assay [16], roughly 2 nM.
